Data: article PMC12435690, “KYLO-0603, a novel liver-targeting, thyroid hormone receptor-β agonist for the inhibition of MASH progression” (PLOS One, 2025)

Assay: 182-day long-term dosing toxicity study in Sprague-Dawley rats
Assay type: in vivo
Description: To evaluate the preclinical safety profile of Kylo-0603, a novel liver-targeted thyroid hormone receptor β (TRβ) agonist with therapeutic potential, systematic toxicological assessments were conducted in both non-human primates (cynomolgus monkeys) and rodents (Sprague-Dawley rats). […] The no-observed-adverse-effect level (NOAEL) was determined to be 1.5 mg/kg/day. Collectively, these independent toxicological investigations substantiate Kylo-0603’s favorable safety, providing rigorous preclinical support for clinical advancement.

For `CC(=O)N[C@H]1[C@H](OCCCCCCNC(=O)CCOCC(COCCC(=O)NCCCCCCO[C@@H]2O[C@H](CO)[C@H](O)[C@H](O)[C@H]2NC(C)=O)(COCCC(=O)NCCCCCCO[C@@H]2O[C@H](CO)[C@H](O)[C@H](O)[C@H]2NC(C)=O)NC(=O)CCCCCNC(=O)COc2cc(C)c(Cc3ccc(O)c(C(C)C)c3)c(C)c2)O[C@H](CO)[C@H](O)[C@@H]1O` [Kylo-0603], the pathological changes (182 days, maximum dose 1.5 mg/kg/day, 8-week recovery) was “only mild Kylo-0603-related pathological changes”, the “perturbations of the hypothalamic-pituitary-thyroid (HPT) axis” value (Sprague-Dawley rats) was “no perturbations” and the NOAEL at 182 day (Sprague-Dawley, rat, in vivo, 1.5 mg/kg/day, 182-day study, SD rats, read-out: no-observed-adverse-effect level (NOAEL)) was 1.5 mg/kg/day.
